# According to the supplement of paper PMC9112550, “Optimization of the antimicrobial peptide Bac7 by deep mutational scanning” (BMC Biology, 2022):
# System: Escherichia coli TOP10
# Test: shrunken log2 fold change of peptide-encoding DNA abundance (4.5 h post-induction vs induction); higher = less antimicrobial activity (less host growth inhibition)
# Settings: time post-induction: 4.5 h; library: site-saturation at positions 5, 18, 19, 20
# 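Further: peptides expressed intracellularly from a pBAD plasmid library in pooled LB shake-flask culture, induced with 0.3% L-arabinose, DNA abundance read by NGS, three biological replicates, DESeq2 with apeglm shrinkage.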
row,Sequence,shrunken log2 fold change
1,RRIRRRPPRLPRPRPRPTNNPRP,-0.0392
2,RRIRHRPPRLPRPRPRPFMMPRP,-0.272
3,RRIRHRPPRLPRPRPRPYCYPRP,-0.577
4,RRIRIRPPRLPRPRPRPESWPRP,0.249
5,RRIRGRPPRLPRPRPRPQAKPRP,1.34
6,RRIRGRPPRLPRPRPRPYMTPRP,0.109
7,RRIRDRPPRLPRPRPRPFGMPRP,-0.0413
8,RRIRYRPPRLPRPRPRPIKTPRP,-0.154
9,RRIRYRPPRLPRPRPRPSWGPRP,-0.154
10,RRIRCRPPRLPRPRPRPAAQPRP,0.394
11,RRIRRRPPRLPRPRPRPEGPPRP,0.568
12,RRIRLRPPRLPRPRPRPNNWPRP,-0.275
13,RRIRDRPPRLPRPRPRPTMIPRP,-0.587
14,RRIRLRPPRLPRPRPRPNNQPRP,-0.287
15,RRIRPRPPRLPRPRPRPVCVPRP,0.146
16,RRIRTRPPRLPRPRPRPFSPPRP,-0.375
17,RRIRRRPPRLPRPRPRPYSNPRP,-0.414
18,RRIRWRPPRLPRPRPRPRMPPRP,0.395
19,RRIRPRPPRLPRPRPRPWEPPRP,0.0548
20,RRIRSRPPRLPRPRPRPEEKPRP,0.206
21,RRIRARPPRLPRPRPRPCDLPRP,0.15
22,RRIRFRPPRLPRPRPRPIQEPRP,-0.541
23,RRIRYRPPRLPRPRPRPCHLPRP,-0.019
24,RRIRLRPPRLPRPRPRPILCPRP,-0.152
25,RRIRIRPPRLPRPRPRPMHFPRP,-0.487

row,Sequence,shrunken log2 fold change
1,RRIRVRPPRLPRPRPRPGPEPRP,0.22
2,RRIRPRPPRLPRPRPRPMVWPRP,0.212
3,RRIRGRPPRLPRPRPRPQYQPRP,-0.191
4,RRIRSRPPRLPRPRPRPDLWPRP,0.349
5,RRIRWRPPRLPRPRPRPGFFPRP,0.26
6,RRIRHRPPRLPRPRPRPDRFPRP,-0.00476
7,RRIRYRPPRLPRPRPRPLHCPRP,-0.724
8,RRIRQRPPRLPRPRPRPISFPRP,-0.0842
9,RRIRRRPPRLPRPRPRPHWFPRP,-0.198
10,RRIRCRPPRLPRPRPRPFGHPRP,0.0616
11,RRIRDRPPRLPRPRPRPLEVPRP,0.121
12,RRIRMRPPRLPRPRPRPDIKPRP,1.51
13,RRIRDRPPRLPRPRPRPEAGPRP,0.67
14,RRIRFRPPRLPRPRPRPVNCPRP,-0.15
15,RRIRLRPPRLPRPRPRPNNEPRP,-0.276
16,RRIRWRPPRLPRPRPRPDFTPRP,0.15
17,RRIRLRPPRLPRPRPRPHDCPRP,-0.0305
18,RRIRRRPPRLPRPRPRPHLRPRP,0.298
19,RRIRMRPPRLPRPRPRPEGSPRP,3.63
20,RRIRWRPPRLPRPRPRPGFKPRP,-0.143
21,RRIRTRPPRLPRPRPRPKLKPRP,-0.0522
22,RRIRLRPPRLPRPRPRPRWKPRP,0.191
23,RRIRERPPRLPRPRPRPLCFPRP,-0.313
24,RRIRNRPPRLPRPRPRPYRLPRP,-0.00674
25,RRIRFRPPRLPRPRPRPNGGPRP,0.000932

row,Sequence,shrunken log2 fold change
1,RRIRTRPPRLPRPRPRPIFQPRP,-0.192
2,RRIRERPPRLPRPRPRPTNPPRP,-0.182
3,RRIRQRPPRLPRPRPRPRMAPRP,0.0146
4,RRIRIRPPRLPRPRPRPMSQPRP,-0.119
5,RRIRSRPPRLPRPRPRPSSQPRP,0.0487
6,RRIRERPPRLPRPRPRPPKMPRP,-0.212
7,RRIRQRPPRLPRPRPRPGFVPRP,0.217
8,RRIRRRPPRLPRPRPRPTTNPRP,0.338
9,RRIRARPPRLPRPRPRPTACPRP,0.405
10,RRIRWRPPRLPRPRPRPLNKPRP,-0.397
11,RRIRERPPRLPRPRPRPKKKPRP,-0.0784
12,RRIRTRPPRLPRPRPRPGVLPRP,0.08
13,RRIRERPPRLPRPRPRPLICPRP,-0.74
14,RRIRWRPPRLPRPRPRPLANPRP,0.552
15,RRIRSRPPRLPRPRPRPGMFPRP,0.107
16,RRIRHRPPRLPRPRPRPDCPPRP,0.0615
17,RRIRVRPPRLPRPRPRPWECPRP,-0.00141
18,RRIRVRPPRLPRPRPRPVWQPRP,0.148
19,RRIRYRPPRLPRPRPRPAAQPRP,0.466
20,RRIRERPPRLPRPRPRPGTCPRP,0.0777
21,RRIRKRPPRLPRPRPRPFFNPRP,0.0296
22,RRIRFRPPRLPRPRPRPPEYPRP,-0.0154
23,RRIRRRPPRLPRPRPRPHSDPRP,-0.0198
24,RRIRDRPPRLPRPRPRPAGHPRP,0.261
25,RRIRERPPRLPRPRPRPRAEPRP,-0.116

row,Sequence,shrunken log2 fold change
1,RRIRFRPPRLPRPRPRPTDKPRP,0.00702
2,RRIRHRPPRLPRPRPRPGANPRP,-0.0811
3,RRIRQRPPRLPRPRPRPMNEPRP,-0.0541
4,RRIRQRPPRLPRPRPRPKPTPRP,-0.0515
5,RRIRDRPPRLPRPRPRPDWEPRP,0.0165
6,RRIRIRPPRLPRPRPRPYIDPRP,-0.484
7,RRIRPRPPRLPRPRPRPYNQPRP,-0.429
8,RRIRSRPPRLPRPRPRPSNFPRP,-0.379
9,RRIRTRPPRLPRPRPRPCYRPRP,-0.0575
10,RRIRPRPPRLPRPRPRPWLFPRP,-0.0483
11,RRIRRRPPRLPRPRPRPTHIPRP,0.274
12,RRIRLRPPRLPRPRPRPCEGPRP,-0.199
13,RRIRFRPPRLPRPRPRPMCAPRP,0.253
14,RRIRKRPPRLPRPRPRPQKWPRP,0.0282
15,RRIRMRPPRLPRPRPRPHLFPRP,-0.0118
16,RRIRGRPPRLPRPRPRPRHGPRP,0.264
17,RRIRHRPPRLPRPRPRPDPPPRP,0.232
18,RRIRIRPPRLPRPRPRPNTIPRP,-0.355
19,RRIRCRPPRLPRPRPRPICIPRP,-0.191
20,RRIRTRPPRLPRPRPRPDFAPRP,0.176
21,RRIRARPPRLPRPRPRPDMKPRP,-0.0184
22,RRIRYRPPRLPRPRPRPECQPRP,0.0129
23,RRIRGRPPRLPRPRPRPFYKPRP,-0.0686
24,RRIRMRPPRLPRPRPRPGQIPRP,-0.00968
25,RRIRVRPPRLPRPRPRPDCSPRP,-0.0973

row,Sequence,shrunken log2 fold change
1,RRIRLRPPRLPRPRPRPQAEPRP,0.0388
2,RRIRIRPPRLPRPRPRPPKSPRP,-0.0284
3,RRIRSRPPRLPRPRPRPNIYPRP,-0.519
4,RRIRKRPPRLPRPRPRPKCQPRP,0.03
5,RRIRCRPPRLPRPRPRPIVIPRP,-1.09
6,RRIRQRPPRLPRPRPRPSKCPRP,-0.719
7,RRIRCRPPRLPRPRPRPMCLPRP,-0.201
8,RRIRFRPPRLPRPRPRPCVNPRP,-0.121
9,RRIRTRPPRLPRPRPRPAGWPRP,0.517
10,RRIRMRPPRLPRPRPRPKNIPRP,-0.232
11,RRIRYRPPRLPRPRPRPMNKPRP,-0.187
12,RRIRLRPPRLPRPRPRPEPKPRP,0.238
13,RRIRMRPPRLPRPRPRPCHRPRP,0.00646
14,RRIRMRPPRLPRPRPRPRIVPRP,0.16
15,RRIRSRPPRLPRPRPRPQCIPRP,-1.27
16,RRIRGRPPRLPRPRPRPAGTPRP,0.752
17,RRIRWRPPRLPRPRPRPCKAPRP,-0.0863
18,RRIRLRPPRLPRPRPRPTPNPRP,0.403
19,RRIRARPPRLPRPRPRPRMLPRP,0.395
20,RRIRSRPPRLPRPRPRPWGDPRP,-0.077
21,RRIRCRPPRLPRPRPRPEAKPRP,0.208
22,RRIRSRPPRLPRPRPRPGWQPRP,-0.339
23,RRIRMRPPRLPRPRPRPMNLPRP,0.11
24,RRIRCRPPRLPRPRPRPNACPRP,-0.0874
25,RRIRRRPPRLPRPRPRPYCGPRP,-0.379

row,Sequence,shrunken log2 fold change
1,RRIRVRPPRLPRPRPRPNKCPRP,-0.616
2,RRIRWRPPRLPRPRPRPPVVPRP,0.13
3,RRIRDRPPRLPRPRPRPHDQPRP,-0.0965
4,RRIRKRPPRLPRPRPRPLNAPRP,0.731
5,RRIRRRPPRLPRPRPRPPWMPRP,0.269
6,RRIRTRPPRLPRPRPRPVMHPRP,0.102
7,RRIRGRPPRLPRPRPRPDLEPRP,0.288
8,RRIRGRPPRLPRPRPRPPEHPRP,0.853
9,RRIRKRPPRLPRPRPRPTNRPRP,-0.0262
10,RRIRPRPPRLPRPRPRPRCRPRP,0.217
11,RRIRNRPPRLPRPRPRPDLYPRP,-0.0459
12,RRIRCRPPRLPRPRPRPDCVPRP,0.184
13,RRIRWRPPRLPRPRPRPYPWPRP,-0.156
14,RRIRMRPPRLPRPRPRPRDDPRP,0.202
15,RRIRPRPPRLPRPRPRPKERPRP,0.128
16,RRIRDRPPRLPRPRPRPIYMPRP,-0.106
17,RRIRNRPPRLPRPRPRPHGTPRP,-0.105
18,RRIRFRPPRLPRPRPRPDSAPRP,-0.102
19,RRIRVRPPRLPRPRPRPEVGPRP,0.175
20,RRIRNRPPRLPRPRPRPTDDPRP,0.0875
21,RRIRQRPPRLPRPRPRPLPHPRP,0.137
22,RRIRMRPPRLPRPRPRPEMSPRP,-0.00133
23,RRIRARPPRLPRPRPRPPYTPRP,0.16
24,RRIRFRPPRLPRPRPRPTEWPRP,0.00734
25,RRIRQRPPRLPRPRPRPWAMPRP,-0.0161
